Among the data in CN118050507A are Neu 50 (病毒中和试验) values, retold here.

The target of this test is O型FMDV流行毒株 (Foot-and-mouth disease virus serotype O). Kind of test: cell-based or functional assay.

B1: O型口蹄疫病毒中和抗体Ab1 (VHH)
VHH: QVQLQESGGGLVQPGGSLRLSCAASGTPFSGGSINEISINHLGWYRQAPGKERELVAAITRGGSTYYADSVKGRFAISRDDAKKMVYLQMNSLKPEDTAVYYCNGLRASTAQWEESETTWGQGTQVTVSS
B1 returned a Neu 50 (病毒中和试验) of 0.8 µmol/L.
